Experimental data as given in patent publication US11008403 (dated 2021).
Where “and” joins values, the source holds several entries; their conditions need not be identical. Equal values may be shown once.

T1: cyno TfR ECD (cynomolgus)
T1 chain: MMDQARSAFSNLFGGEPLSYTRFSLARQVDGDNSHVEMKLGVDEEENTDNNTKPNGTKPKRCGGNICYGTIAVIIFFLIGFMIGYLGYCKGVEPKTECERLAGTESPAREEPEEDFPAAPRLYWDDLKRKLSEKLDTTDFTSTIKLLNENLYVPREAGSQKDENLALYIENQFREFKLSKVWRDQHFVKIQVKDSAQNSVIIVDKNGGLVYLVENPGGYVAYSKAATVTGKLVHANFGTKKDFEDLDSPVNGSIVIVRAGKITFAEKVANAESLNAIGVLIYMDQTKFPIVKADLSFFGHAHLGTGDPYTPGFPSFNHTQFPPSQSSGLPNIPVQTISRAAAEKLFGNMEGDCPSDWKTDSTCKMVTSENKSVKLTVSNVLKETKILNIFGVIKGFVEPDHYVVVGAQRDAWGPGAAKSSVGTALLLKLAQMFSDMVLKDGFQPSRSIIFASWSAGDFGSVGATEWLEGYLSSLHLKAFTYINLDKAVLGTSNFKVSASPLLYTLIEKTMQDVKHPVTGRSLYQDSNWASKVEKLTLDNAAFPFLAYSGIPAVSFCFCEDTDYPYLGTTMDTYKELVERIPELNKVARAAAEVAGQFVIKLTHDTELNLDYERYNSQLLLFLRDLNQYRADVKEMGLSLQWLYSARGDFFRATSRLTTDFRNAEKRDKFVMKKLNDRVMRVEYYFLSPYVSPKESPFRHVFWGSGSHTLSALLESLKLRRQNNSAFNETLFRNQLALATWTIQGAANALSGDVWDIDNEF


Legend:
[1] = target: human TfR ECD (human); assay: SPR
Chain of human TfR ECD (human) (chain, as listed by the source): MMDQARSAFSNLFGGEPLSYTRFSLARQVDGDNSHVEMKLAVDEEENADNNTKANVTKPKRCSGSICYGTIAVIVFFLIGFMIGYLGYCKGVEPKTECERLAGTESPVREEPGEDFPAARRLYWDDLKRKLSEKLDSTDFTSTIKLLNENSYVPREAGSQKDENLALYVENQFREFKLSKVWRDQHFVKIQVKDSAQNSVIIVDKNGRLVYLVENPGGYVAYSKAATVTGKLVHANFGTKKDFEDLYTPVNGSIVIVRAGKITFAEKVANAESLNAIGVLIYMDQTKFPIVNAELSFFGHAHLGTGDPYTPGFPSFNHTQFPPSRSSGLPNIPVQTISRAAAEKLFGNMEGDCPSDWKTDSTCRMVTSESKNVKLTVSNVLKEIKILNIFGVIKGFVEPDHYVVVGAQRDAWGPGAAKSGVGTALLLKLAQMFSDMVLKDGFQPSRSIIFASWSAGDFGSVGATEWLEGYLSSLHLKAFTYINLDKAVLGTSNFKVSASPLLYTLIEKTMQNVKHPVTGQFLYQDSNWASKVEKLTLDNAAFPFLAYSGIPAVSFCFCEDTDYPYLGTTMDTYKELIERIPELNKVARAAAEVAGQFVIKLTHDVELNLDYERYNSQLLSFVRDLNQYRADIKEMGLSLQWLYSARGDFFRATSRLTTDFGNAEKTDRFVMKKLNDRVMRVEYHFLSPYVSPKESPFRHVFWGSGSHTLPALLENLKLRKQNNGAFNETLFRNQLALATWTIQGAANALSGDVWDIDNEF

[2] = target: T1, cyno TfR ECD; assay: SPR
[3] = target: human TfR ECD (human); assay: ELISA
[4] = target: T1, cyno TfR ECD; assay: ELISA

Row | Binder | Kd [1] | Kd [2] | EC50 [3] | EC50 [4]
1 | Hu16F6.v4 Fab (antibody, V domains shown) VH: EVQLVESGPGLVKPSETLSLTCTVSGNSITSEYAWNWIRQPPGKGLEWIGYISYSGTTSYNPSLKSRVTISRDTSKNQLSLKLSSVTAADTAVYYCARYGYGNPATRYFDVWGQGTLVTVSS VL: DIQMTQSPSSLSASVGDRVTITCRASKSISKYLAWYQQKPGKTNKLLLYSGSTLQSGVPSRFSGSGSGTDYTLTISSLQPEDFATYYCQQHNEYPWTFGQGTKVEIK | 1.29 nM | 24.7 nM | – | –
2 | Mu7A4 Fab (antibody, V domains shown) VH: QVQLQQSGPELVRPGVSVKISCKGSGYTFTDYAMHWVKQSHAKSLEWIGGISTYFGRTNYNQKFKGRATMTVDKSSSTAYMELARLTSEDSALYYCARGLSGNYVMDYWGQGTSVTVSS VL: DIVLTQSPASLAVSLGQRATISCRASESVDSYGNSFMHWYQQKPGQPPKLLIYRASNLESGIPARFSGSGSRTDFTLTINPVEADDVATYYCQQSNEGPPTFGGGTKLEIK | 0.19 nM | 0.741 nM | – | –
3 | hu15G11.v5 HC G26A (antibody, V domains shown) VH: EVQLVQSGAEVKKPGASVKVSCKASAYTFTSYWMHWVRQAPGQRLEWIGEINPTNGRTNYIEKFKSRATLTVDKSASTAYMELSSLRSEDTAVYYCARGTRAYHYWGQGTMVTVSS VL: DIQMTQSPSSLSASVGDRVTITCRASDNLYSNLAWYQQKPGKSPKLLVYDATNLADGVPSRFSGSGSGTDYTLTISSLQPEDFATYYCQHFWGTPLTFGQGTKVEIK | – | – | 1.1 ng/mL | 6.1 ng/mL
4 | hu15G11.v5 HC E50A (antibody, V domains shown) VH: EVQLVQSGAEVKKPGASVKVSCKASGYTFTSYWMHWVRQAPGQRLEWIGAINPTNGRTNYIEKFKSRATLTVDKSASTAYMELSSLRSEDTAVYYCARGTRAYHYWGQGTMVTVSS VL: DIQMTQSPSSLSASVGDRVTITCRASDNLYSNLAWYQQKPGKSPKLLVYDATNLADGVPSRFSGSGSGTDYTLTISSLQPEDFATYYCQHFWGTPLTFGQGTKVEIK | – | – | 20.6 ng/mL | 410 ng/mL
5 | hu15G11.v5 HC G49A (antibody, V domains shown) VH: EVQLVQSGAEVKKPGASVKVSCKASGYTFTSYWMHWVRQAPGQRLEWIAEINPTNGRTNYIEKFKSRATLTVDKSASTAYMELSSLRSEDTAVYYCARGTRAYHYWGQGTMVTVSS VL: DIQMTQSPSSLSASVGDRVTITCRASDNLYSNLAWYQQKPGKSPKLLVYDATNLADGVPSRFSGSGSGTDYTLTISSLQPEDFATYYCQHFWGTPLTFGQGTKVEIK | – | – | 0.3 ng/mL | 1.1 ng/mL
6 | hu15G11.v5 HC I51A (antibody, V domains shown) VH: EVQLVQSGAEVKKPGASVKVSCKASGYTFTSYWMHWVRQAPGQRLEWIGEANPTNGRTNYIEKFKSRATLTVDKSASTAYMELSSLRSEDTAVYYCARGTRAYHYWGQGTMVTVSS VL: DIQMTQSPSSLSASVGDRVTITCRASDNLYSNLAWYQQKPGKSPKLLVYDATNLADGVPSRFSGSGSGTDYTLTISSLQPEDFATYYCQHFWGTPLTFGQGTKVEIK | – | – | 0.2 ng/mL | 0.6 ng/mL
7 | hu15G11.v5 LC S26A (antibody, V domains shown) VH: EVQLVQSGAEVKKPGASVKVSCKASGYTFTSYWMHWVRQAPGQRLEWIGEINPTNGRTNYIEKFKSRATLTVDKSASTAYMELSSLRSEDTAVYYCARGTRAYHYWGQGTMVTVSS VL: DIQMTQSPSSLSASVGDRVTITCRAADNLYSNLAWYQQKPGKSPKLLVYDATNLADGVPSRFSGSGSGTDYTLTISSLQPEDFATYYCQHFWGTPLTFGQGTKVEIK | – | – | 0.2 ng/mL | 0.6 ng/mL
8 | hu15G11.v5 LC N28A (antibody, V domains shown) VH: EVQLVQSGAEVKKPGASVKVSCKASGYTFTSYWMHWVRQAPGQRLEWIGEINPTNGRTNYIEKFKSRATLTVDKSASTAYMELSSLRSEDTAVYYCARGTRAYHYWGQGTMVTVSS VL: DIQMTQSPSSLSASVGDRVTITCRASDALYSNLAWYQQKPGKSPKLLVYDATNLADGVPSRFSGSGSGTDYTLTISSLQPEDFATYYCQHFWGTPLTFGQGTKVEIK | – | – | 0.2 ng/mL | 0.8 ng/mL
9 | hu15G11.v5 HC T28A (antibody, V domains shown) VH: EVQLVQSGAEVKKPGASVKVSCKASGYAFTSYWMHWVRQAPGQRLEWIGEINPTNGRTNYIEKFKSRATLTVDKSASTAYMELSSLRSEDTAVYYCARGTRAYHYWGQGTMVTVSS VL: DIQMTQSPSSLSASVGDRVTITCRASDNLYSNLAWYQQKPGKSPKLLVYDATNLADGVPSRFSGSGSGTDYTLTISSLQPEDFATYYCQHFWGTPLTFGQGTKVEIK | – | – | 0.4 ng/mL | 0.8 ng/mL
10 | hu15G11.v5 LC L54A (antibody, V domains shown) VH: EVQLVQSGAEVKKPGASVKVSCKASGYTFTSYWMHWVRQAPGQRLEWIGEINPTNGRTNYIEKFKSRATLTVDKSASTAYMELSSLRSEDTAVYYCARGTRAYHYWGQGTMVTVSS VL: DIQMTQSPSSLSASVGDRVTITCRASDNLYSNLAWYQQKPGKSPKLLVYDATNAADGVPSRFSGSGSGTDYTLTISSLQPEDFATYYCQHFWGTPLTFGQGTKVEIK | – | – | 0.4 ng/mL | 0.5 ng/mL
11 | hu15G11.v5 IgG (antibody, V domains shown) VH: EVQLVQSGAEVKKPGASVKVSCKASGYTFTSYWMHWVRQAPGQRLEWIGEINPTNGRTNYIEKFKSRATLTVDKSASTAYMELSSLRSEDTAVYYCARGTRAYHYWGQGTMVTVSS VL: DIQMTQSPSSLSASVGDRVTITCRASDNLYSNLAWYQQKPGKSPKLLVYDATNLADGVPSRFSGSGSGTDYTLTISSLQPEDFATYYCQHFWGTPLTFGQGTKVEIK | – | – | 0.8 ng/mL | 1.8 ng/mL
12 | hu15G11.v5 LC R24A (antibody, V domains shown) VH: EVQLVQSGAEVKKPGASVKVSCKASGYTFTSYWMHWVRQAPGQRLEWIGEINPTNGRTNYIEKFKSRATLTVDKSASTAYMELSSLRSEDTAVYYCARGTRAYHYWGQGTMVTVSS VL: DIQMTQSPSSLSASVGDRVTITCAASDNLYSNLAWYQQKPGKSPKLLVYDATNLADGVPSRFSGSGSGTDYTLTISSLQPEDFATYYCQHFWGTPLTFGQGTKVEIK | – | – | 0.1 ng/mL | 0.4 ng/mL
13 | Hu7G7.v1 Fab (antibody, V domains shown) VH: EVQLVQSGAEVKKPGASVKVSCKASGYTFTSYWMHWVRQAPGQGLEWIGNIYPGSGSTKYDERFKSRVTITVDTSTSTAYLELSSLRSEDTAVYYCTRGGYDSRAWFAYWGQGTLVTVSS VL: DIVMTQSPDSLAVSLGERATINCRARQSVSTSSYSFMHWYQQPAGQPPKLLIKYASIQESGVPDRFSGSGSGTDFTLTISSLQAEDVAVYYCQHTWEIPFTFGQGTKVEIK | 45.8 nM | 188 nM | – | –
14 | Mu15G11 Fab (antibody, V domains shown) VH: QVQLQQPGAELVKPGASVKLSCKASGYTFTSYWMHWVKQRPGQGLEWIGEINPTNGRTNYIEKFKSKATLTVDKSSSTAYMQLSSLTSEDSAVYYCARGTRAYHYWGQGTSVTVSS VL: DIQMTQSPASLSVSVGETVTITCRASDNLYSNLAWYQQKQGKSPQLLVYDATNLADGVPSRFSGSGSGTQYSLKINSLQSEDFGTYYCQHFWGTPLTFGAGTKLELK | 3.37 nM | 5.81 nM and 7.57 nM | – | –
15 | Mu16F6 Fab (antibody, V domains shown) VH: DVQLQESGPGLVKPSQSLSLTCTVTGNSITSEYAWNWIRQFPGNKLEWMGYISYSGTTSYNPSLKSRISITRDTSKNQLFLQLNSVTTEDTATYFCARYGYGNPATRYFDVWGAGTTVTVSS VL: DVQITQSPSYLTASPGETITINCRASKSISKYLAWYQEKPGKTNKLLIYSGSTLQSGIPSRFSGSGSGTDFTLTISNLEPEDFAMYYCQQHNEYPWTFGGGTKLEIK | 3.13 nM | 26.8 nM | – | –
